Experiments:
[1] = test system: bone marrow progenitor cells; experiment: Colony assay: clonal proliferation and differentiation of bone marrow progenitor cells in semi-solid agar; format: cell-based
Method: (a) Colony assay: this assay measured the clonal proliferation and differentiation of bone marrow progenitor cells in semi-solid agar and was carried out as described (Lopez et. al., 1985, Blood 72, 1797-1804). Briefly, low density, macrophage-depleted bone marrow cells were cultured at a concentration of 0.5 to 1×10^5 /mL in Iscove's modified Dulbecco's medium (IMDM, GIBCI, Grant Island, N.Y.), containing 0.33% agar (Difco, Detroit), 25% FCS (Commonwealth Serum Laboratories, Parkville, Victoria, Australia), and 20 μmol/LK2-mercaptoethanol. Different dilutions of IL-3- containing COS cell supernatants were added to each plate. Plates were prepared in triplicate and scored after incubation at 37° C. in 5% CO2 in a humid atmosphere for 14 days. Clones containing 40 cells were scored as colonies.

[2] = target: T1, IL-3R α chain and β chain (Homo sapiens, UniProt P26951+P32927); experiment: Competition for 125I-IL-3 binding to reconstituted IL-3 high affinity receptor (α and β chains) in COS cells
T1 construct: amplify the complete coding region of the IL-3R alpha chain; also to amplify the coding region of the IL-3R α chain; expressed in transfected cells; host or cells: COS cells (pCDM8 vector, electroporation)
T1 sequence (P26951 19-378): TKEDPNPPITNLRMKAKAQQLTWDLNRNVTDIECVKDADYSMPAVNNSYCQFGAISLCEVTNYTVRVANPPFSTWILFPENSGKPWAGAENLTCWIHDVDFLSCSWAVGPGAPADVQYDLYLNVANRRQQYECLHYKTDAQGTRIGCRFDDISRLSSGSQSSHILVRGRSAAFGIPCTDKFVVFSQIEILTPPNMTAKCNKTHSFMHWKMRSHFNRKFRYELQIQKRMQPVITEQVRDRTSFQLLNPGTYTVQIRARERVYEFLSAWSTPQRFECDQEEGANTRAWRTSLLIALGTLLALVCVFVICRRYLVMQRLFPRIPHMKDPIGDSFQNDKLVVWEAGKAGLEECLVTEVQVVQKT
T1 sequence (P32927 17-897): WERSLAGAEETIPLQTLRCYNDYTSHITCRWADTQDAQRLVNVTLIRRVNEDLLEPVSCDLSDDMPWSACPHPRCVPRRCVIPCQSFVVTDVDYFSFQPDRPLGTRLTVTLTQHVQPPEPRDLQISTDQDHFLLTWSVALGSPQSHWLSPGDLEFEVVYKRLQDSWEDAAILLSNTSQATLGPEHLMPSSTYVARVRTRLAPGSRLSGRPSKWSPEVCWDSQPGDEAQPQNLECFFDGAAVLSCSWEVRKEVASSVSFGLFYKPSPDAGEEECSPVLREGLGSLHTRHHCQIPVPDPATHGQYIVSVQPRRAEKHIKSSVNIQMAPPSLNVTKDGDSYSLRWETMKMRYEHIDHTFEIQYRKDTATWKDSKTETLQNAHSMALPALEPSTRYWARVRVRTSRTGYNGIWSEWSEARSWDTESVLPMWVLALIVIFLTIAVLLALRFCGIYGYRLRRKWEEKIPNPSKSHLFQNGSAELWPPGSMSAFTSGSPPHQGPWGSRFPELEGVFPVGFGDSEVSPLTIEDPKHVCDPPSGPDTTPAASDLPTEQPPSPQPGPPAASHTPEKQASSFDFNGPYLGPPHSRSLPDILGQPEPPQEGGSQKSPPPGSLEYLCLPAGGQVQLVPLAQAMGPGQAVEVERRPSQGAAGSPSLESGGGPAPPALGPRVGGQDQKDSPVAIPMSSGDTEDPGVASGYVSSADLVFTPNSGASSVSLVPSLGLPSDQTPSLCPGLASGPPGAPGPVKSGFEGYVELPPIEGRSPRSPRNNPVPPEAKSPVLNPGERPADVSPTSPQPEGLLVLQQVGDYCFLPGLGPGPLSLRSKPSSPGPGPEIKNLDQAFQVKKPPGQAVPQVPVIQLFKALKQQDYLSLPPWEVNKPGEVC
From the text: PolyA+ RNA was isolated from the human cord blood cell line KMT2. Oligo dT primed double stranded cDNA was synthesised and used as template for PCR amplification. The PCR primers were designed to amplify the complete coding region of the IL-3R alpha chain and also to amplify the coding region of the […]. The PCR products were cloned into the vector pGEM-2 for sequence verification, and then into the eukaryotic expression vector, pCDM8. The […]-containing plasmid was transfected into COS cells by electroporation, either on its own or in conjunction with the […], and after two days the cells were used for binding studies.

[3] = target: T2, IL-3 high affinity receptor of monocytes (Homo sapiens, UniProt P26951+P32927); experiment: Competition for 125I-IL-3 binding to the high affinity receptor of monocytes; settings: high affinity receptor on monocytes
T2 construct: endogenous in cells; host or cells: freshly purified human peripheral blood monocytes
T2 sequence (P26951 19-378): T1 sequence (P26951 19-378)
T2 sequence (P32927 17-897): T1 sequence (P32927 17-897)
Method: (a) Radioiodination of hIL-3: rh IL-3 (gift from Dr. L. Park, Immunex Corporation, Seattle, Wash.) was radioiodinated by the ICI method as previously described (Contreras et. al., supra). Iodinated protein was separated from free ^125 I by chromatography on a Sephadex G-25 PD 10 column (Pharmacia, Uppsala, Sweden) equilibrated in phosphate-buffered saline (PBS) containing 0.02% Tween 20, and stored at 4° C. for up to 4 weeks. Before use, the iodinated protein was purified from Tween and nonprotein-associated radioactivity by cation exchange chromatography on a 0.3-ml CM-Sepharose CL-6B column (Pharmacia) and stored at 4° C. for up to 5 days.
(b) Competition Binding assay. Freshly purified monocytes were suspended in binding medium consisting of RPMI 1640 supplemented with 20 mmol/L/HEPES and 0.5% bovine serum albumin (BSA). […] Cell suspensions were then overlaid on 0.2 mL FCS at 4° C. and centrifuged for 30 seconds at a maximum speed in a Beckman Microfugre 12. The tip of each tube was cut off above the visible cell pellet and counted in a Packard Auto-Gamma 5650 (Downer's Grove, Ill). The results are expressed as Percent competition where 100% is the competition observed in the presence of 100 fold excess native IL-3.

B1: M37: human IL-3 mutant, Asp 101 replaced by Ala and Lys 116 by Val (protein, UniProt P08700 20-152, looked up, variant D101A K116V)
Interleukin-3: APMTQTTPLKTSWVNCSNMIDEIITHLKQPPLPLLDFNNLNGEDQDILMENNLRRPNLEAFNRAVKSLQNASAIESILKNLLPCLPLATAAPTRHPIHIKAGDWNEFRRKLTFYLVTLENAQAQQTTLSLAIF
**Q.** With B1 as the molecule, how does the “number of day 14 colonies” value [1] read?
**A.** increase in the number of day 14 colonies

**Q.** What about the “Relative biological activity, PROLIFERATION COLONIES” value ([1]; concentration of IL-3 mutant giving 50% of biological activity compared to that of wild type IL-3, mean ± SD) of the same molecule?
**A.** 1700

**Q.** What about the “fold higher affinity than wild type IL-3” value ([2]; COS cells transfected with IL-3R α chain and β chain cDNAs, E. coli produced protein) of the same molecule?
**A.** 15 fold

**Q.** And the “binding to cotransfected α and β chains” value ([2]; FIG. 7)?
**A.** higher affinity

**Q.** What about the “fold higher binding affinity than wild-type IL-3” value [3] of the same molecule?
**A.** 10-15 fold

**Q.** What about the “fold higher binding affinity than wild-type IL-3” value ([3]; listed as IL-3 (Ala^101, Val^116)) of the same molecule?
**A.** 16 fold
